Results reported in the supplement of paper PMC7877785.
± gives the uncertainty stated by the source.

Assay: self-splicing fitness, log relative to wild type (ln ratio); higher = more splicing; Tetrahymena group I intron in knt gene, E. coli kanamycin selection, DiMSum; sequences stand for … in CUCUCU…GGAGGGAAAAGUUAUCAGGCAUGCACCUGGUAGCUAGUCUUUAAACCAAUAGAUUGCAUCGGUUUAAAAGGCAAGACCGUCAAAUUGCGGGAAAGGGGUCAACAGCCGUUCAGUACCAAGUCUCAGGGGAAACUUUGAGAUGGCCUUGCAAAGGGUAUGGUAAUAAGCUGACGGACAUGGUCCUAACCACGCAGCCAAGUCCUAAGUCAACAGAUCUUCUGUUGAUAUGGAUGCAGUUCACAGACUAAAUGUCGGUCGGGGAAGAUGUAUUCUUCUCAUAAGAUAUAGUCGGACCUCUCCUUAAUGGGAGCUAGCGGAUGAAGUGAUGCAACACUGGAGCCGCUGGGAACUAAUUUGUAUGCGAAAGUAUAUUGAUUAGUUUUGGAGUACUCGUGGUCG
Summary of the method: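 Library with all eight P1ex-region intron nucleotides randomised, intron inside the knt kanamycin-resistance gene on pET-22b(+), in E. coli BL21(DE3). Cells grew overnight at 37°C or 30°C on LB agar with or without 25 μg/mL kanamycin (plus 100 μg/mL carbenicillin, 50 μM IPTG, 0.2% rhamnose), in six replicate transformations. Pooled colonies were amplicon-sequenced on Illumina HiSeq 2500. DiMSum fitness is the error-weighted combination of wild-type-normalised replicate fold changes, kanamycin versus none.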

| Sequence | self-splicing fitness (ln) (30 °C) | self-splicing fitness (ln) (37 °C) |
| --- | --- | --- |
| AGCCAGCAAUAUUACGUUCU | -0.687 ± 0.053 | -0.266 ± 0.068 |
| AGCGAGCAAUAUUACGAAUG | -3.8 ± 0.43 | -2.2 ± 0.42 |
| AGCGAGCAAUAUUACGACUU | -0.736 ± 0.078 | 0.37 ± 0.1 |
| AGCGAGCAAUAUUACGAGGG | -2.74 ± 0.3 | -1.19 ± 0.35 |
| AGCGAGCAAUAUUACGAGUG | -2.92 ± 0.25 | -2.12 ± 0.26 |
| AGCGAGCAAUAUUACGAUGC | -3.11 ± 0.45 | – |
| AGCGAGCAAUAUUACGCAGU | -4.48 ± 0.28 | -2.78 ± 0.25 |
| AGCGAGCAAUAUUACGCCGA | – | -0.607 ± 0.36 |
| AGCGAGCAAUAUUACGCCUG | -3.09 ± 0.3 | -2.24 ± 0.36 |
| AGCGAGCAAUAUUACGCUGA | -3.2 ± 0.18 | -2.51 ± 0.18 |
| AGCGAGCAAUAUUACGCUGC | -1.51 ± 0.39 | -2.23 ± 0.42 |
| AGCGAGCAAUAUUACGGAAU | -2.56 ± 0.26 | -2.66 ± 0.38 |
| AGCGAGCAAUAUUACGGACU | -1.24 ± 0.15 | 0.232 ± 0.16 |
| AGCGAGCAAUAUUACGGAUC | -3.42 ± 0.33 | -1.44 ± 0.49 |
| AGCGAGCAAUAUUACGGCAG | -1.87 ± 0.14 | -1.07 ± 0.23 |
| AGCGAGCAAUAUUACGGGUG | -2.75 ± 0.24 | -1.21 ± 0.21 |
| AGCGAGCAAUAUUACGGUAA | -2.45 ± 0.27 | -2.49 ± 0.24 |
| AGCGAGCAAUAUUACGGUCC | -0.807 ± 0.14 | -0.398 ± 0.18 |
| AGCGAGCAAUAUUACGGUGC | -4.03 ± 0.28 | -2.97 ± 0.24 |
| AGCGAGCAAUAUUACGUACA | -2.08 ± 0.31 | -1.89 ± 0.2 |
| AGCGAGCAAUAUUACGUAUG | -3.68 ± 0.35 | -3.3 ± 0.32 |
| AGCGAGCAAUAUUACGUCCU | -0.026 ± 0.17 | -0.661 ± 0.18 |
| AGCGAGCAAUAUUACGUGCG | -2.67 ± 0.094 | -0.964 ± 0.098 |
| AGCUAGCAAUAUUACGAAGA | -2.45 ± 0.24 | -2.86 ± 0.18 |
| AGCUAGCAAUAUUACGAUAG | -3.51 ± 0.2 | -2.84 ± 0.23 |

| Sequence | self-splicing fitness (ln) (30 °C) | self-splicing fitness (ln) (37 °C) |
| --- | --- | --- |
| AGCUAGCAAUAUUACGAUCA | -2.01 ± 0.12 | -0.168 ± 0.11 |
| AGCUAGCAAUAUUACGAUUA | -2.31 ± 0.21 | -0.806 ± 0.14 |
| AGCUAGCAAUAUUACGCCAU | -1.92 ± 0.31 | -1.91 ± 0.43 |
| AGCUAGCAAUAUUACGCUAC | -2.68 ± 0.48 | -2.77 ± 0.38 |
| AGCUAGCAAUAUUACGCUGC | -3.59 ± 0.48 | – |
| AGCUAGCAAUAUUACGGACA | -1.06 ± 0.12 | 0.0203 ± 0.15 |
| AGCUAGCAAUAUUACGGAGC | -2.44 ± 0.17 | -1.46 ± 0.23 |
| AGCUAGCAAUAUUACGGAUA | -2.55 ± 0.17 | -1.87 ± 0.14 |
| AGCUAGCAAUAUUACGGCCU | -0.139 ± 0.073 | -0.106 ± 0.091 |
| AGCUAGCAAUAUUACGGGUA | -1.27 ± 0.073 | -0.597 ± 0.082 |
| AGCUAGCAAUAUUACGGGUU | -2.74 ± 0.14 | -2.12 ± 0.18 |
| AGCUAGCAAUAUUACGUAAA | -3.11 ± 0.19 | -1.14 ± 0.16 |
| AGCUAGCAAUAUUACGUUGA | -2.68 ± 0.23 | -1.69 ± 0.16 |
| AGGAAGCAAUAUUACGAACG | -1.19 ± 0.14 | -0.0957 ± 0.18 |
| AGGAAGCAAUAUUACGACCU | -2.74 ± 0.22 | -2.29 ± 0.21 |
| AGGAAGCAAUAUUACGAGUA | -2.59 ± 0.15 | -2.21 ± 0.17 |
| AGGAAGCAAUAUUACGAUAC | -3.27 ± 0.26 | -2.02 ± 0.2 |
| AGGAAGCAAUAUUACGAUCU | -0.809 ± 0.085 | -0.905 ± 0.11 |
| AGGAAGCAAUAUUACGCGGG | -1.85 ± 0.18 | -1.67 ± 0.14 |
| AGGAAGCAAUAUUACGCUAG | -2.44 ± 0.42 | – |
| AGGAAGCAAUAUUACGCUUA | -2.41 ± 0.2 | -0.908 ± 0.17 |
| AGGAAGCAAUAUUACGGAAG | -2.98 ± 0.25 | -2.28 ± 0.39 |
| AGGAAGCAAUAUUACGGAGU | -2.89 ± 0.17 | -1.7 ± 0.22 |
| AGGAAGCAAUAUUACGGAUU | -2.3 ± 0.12 | -1.55 ± 0.14 |
